{
  "source": "patent US9549967B2",
  "about": "“Regulation of sodium channels by PLUNC proteins” (The University of North Carolina at Chapel Hill, priority 2009, dated 2017)",
  "key": {"[1]": {"test_system": "human bronchial epithelial cultures", "assay": "Airway surface liquid height by confocal microscopy in human bronchial epithelial cultures", "assay_type": "cell-based", "conditions": "SPLUNC1 knockdown cultures; 50 ng/ml rSPLUNC1 added to airway surface liquid", "from_the_text": "shRNA-induced knockdown of SPLUNC1: Our strategy was to select shRNA sequences from Dharmacon that targeted SPLUNC1 effectively by using transient siRNA in an immortalized human airway epithelial cell line (denoted AALEB) (Lundberg et al., Oncogene 21:4577 (2002)). […] Passage-1 airway cells surviving one week of selection were then trypsinized and plated down on 12 mm T-clear inserts and differentiated under air liquid interface conditions. At the time of the functional assays, we measured airway surface liquid SPLUNC1 protein levels by Western blot to verify stable knockdown. An anti-luciferase shRNA-expressing adenovirus was infected separately as a control.\nConfocal microscopy: To label airway surface liquid, Ringer containing Texas Red-dextran (2 mg/ml; Invitrogen) was added to human bronchial epithelial culture mucosal surfaces. Perfluorocarbon was added mucosally to prevent evaporation of the airway surface liquid and the culture placed in a chamber containing 100 μl Ringer on the stage of a Leica SP5 confocal microscope with a 63× glycerol immersion objective. 5 points per culture were scanned and an average airway surface liquid height determined. For confocal microscopy human bronchial epithelial cultures were bathed serosally in a modified Ringer solution containing (mM): 116 NaCl, 10 NaHCO3, 5.1 KCl, 1.2 CaCl2, 1.2 MgCl2, 20 TES, 10 glucose, pH 7.4). […]"}, "[2]": {"molecular_target": "T1, αR205,231Kβ, γR138K ENaC mutant (Rattus norvegicus, UniProt P37089+P37090+P37091, R138K/R205K/R231K)", "T1 construct": "expressed in transfected cells; host or cells: Xenopus laevis oocytes", "T1 sequence (P37089 1-698 R205K/R231K)": "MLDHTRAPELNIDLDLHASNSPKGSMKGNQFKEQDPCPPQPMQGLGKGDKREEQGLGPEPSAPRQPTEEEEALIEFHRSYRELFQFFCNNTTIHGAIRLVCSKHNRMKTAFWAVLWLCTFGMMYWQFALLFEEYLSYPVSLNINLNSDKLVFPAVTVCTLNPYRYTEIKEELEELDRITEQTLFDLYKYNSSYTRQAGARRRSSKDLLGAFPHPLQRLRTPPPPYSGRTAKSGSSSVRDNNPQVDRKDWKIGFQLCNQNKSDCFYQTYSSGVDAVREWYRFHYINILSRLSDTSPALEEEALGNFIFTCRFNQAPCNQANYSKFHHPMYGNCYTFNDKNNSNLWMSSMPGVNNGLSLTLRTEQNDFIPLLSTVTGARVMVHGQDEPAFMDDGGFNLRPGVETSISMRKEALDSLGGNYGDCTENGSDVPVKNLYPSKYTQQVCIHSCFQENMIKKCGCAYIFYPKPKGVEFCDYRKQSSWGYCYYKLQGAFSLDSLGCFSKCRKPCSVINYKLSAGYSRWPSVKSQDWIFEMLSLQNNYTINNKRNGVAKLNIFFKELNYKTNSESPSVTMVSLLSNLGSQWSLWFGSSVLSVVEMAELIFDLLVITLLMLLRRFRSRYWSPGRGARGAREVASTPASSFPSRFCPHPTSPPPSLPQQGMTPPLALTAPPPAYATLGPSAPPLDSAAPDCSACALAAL", "T1 sequence (P37090 1-638)": "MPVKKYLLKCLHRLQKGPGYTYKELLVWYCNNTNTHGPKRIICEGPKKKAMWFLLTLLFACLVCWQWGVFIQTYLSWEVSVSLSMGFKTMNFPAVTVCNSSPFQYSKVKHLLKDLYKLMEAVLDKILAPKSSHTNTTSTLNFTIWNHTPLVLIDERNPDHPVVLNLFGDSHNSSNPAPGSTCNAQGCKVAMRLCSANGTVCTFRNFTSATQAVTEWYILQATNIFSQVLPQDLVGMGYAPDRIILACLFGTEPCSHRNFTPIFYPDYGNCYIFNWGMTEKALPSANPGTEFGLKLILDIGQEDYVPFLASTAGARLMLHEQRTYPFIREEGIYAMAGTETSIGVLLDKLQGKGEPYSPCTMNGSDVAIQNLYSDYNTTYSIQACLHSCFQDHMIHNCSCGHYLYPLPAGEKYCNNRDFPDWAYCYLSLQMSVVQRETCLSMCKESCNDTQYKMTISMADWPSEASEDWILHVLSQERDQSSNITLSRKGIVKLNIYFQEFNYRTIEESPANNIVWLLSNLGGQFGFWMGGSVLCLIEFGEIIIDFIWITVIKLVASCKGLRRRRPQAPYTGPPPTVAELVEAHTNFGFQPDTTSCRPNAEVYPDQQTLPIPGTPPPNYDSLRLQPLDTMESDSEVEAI", "T1 sequence (P37091 1-650 R138K)": "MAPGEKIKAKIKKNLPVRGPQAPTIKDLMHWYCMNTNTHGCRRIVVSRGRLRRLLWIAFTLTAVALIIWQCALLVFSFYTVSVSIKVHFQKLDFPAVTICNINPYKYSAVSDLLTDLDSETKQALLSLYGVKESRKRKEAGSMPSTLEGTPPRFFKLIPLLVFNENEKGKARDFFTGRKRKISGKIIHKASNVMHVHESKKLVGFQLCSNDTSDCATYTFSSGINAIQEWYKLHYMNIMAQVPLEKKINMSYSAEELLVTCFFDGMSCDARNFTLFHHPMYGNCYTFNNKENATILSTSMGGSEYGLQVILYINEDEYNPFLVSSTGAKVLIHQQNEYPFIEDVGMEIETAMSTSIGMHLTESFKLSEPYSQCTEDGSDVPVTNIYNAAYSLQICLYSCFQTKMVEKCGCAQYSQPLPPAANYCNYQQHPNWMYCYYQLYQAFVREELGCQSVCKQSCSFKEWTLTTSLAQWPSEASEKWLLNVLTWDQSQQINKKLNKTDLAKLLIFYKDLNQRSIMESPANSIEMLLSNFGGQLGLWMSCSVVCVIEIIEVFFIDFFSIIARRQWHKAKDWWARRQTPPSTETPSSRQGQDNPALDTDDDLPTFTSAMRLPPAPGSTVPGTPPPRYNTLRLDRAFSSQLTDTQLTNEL", "assay": "Oocyte current of furin-insensitive ENaC mutant", "assay_type": "cell-based", "conditions": "co-expression in oocytes", "experimental": "Oocyte studies. Xenopus laevis oocytes were harvested and injected as described (Donaldson, et al., J. Biol. Chem. 277:8338 (2002)). Defolliculated healthy stage V-VI oocytes were injected with 0.3 ng of cRNA of each ENaC subunit. Injected oocytes were kept in modified Barth's saline (in mM: 88 NaCl, 1 KCl, 2.4 NaHCO3, 0.3 Ca(NO3)2, 0.41 CaCl2, 0.82 MgSO4, and 15 HEPES, adjusted to pH 7.35 with Tris). Oocytes were studied 24 hr after injection using the two electrode voltage clamp technique as previously described (Donaldson, et al., J. Biol. Chem. 277:8338 (2002)). Oocytes were clamped at a holding potential of […]. The change in amiloride-sensitive whole cell current as an indicator of ENaC activity was determined by subtracting the corresponding current value measured in the presence of 10 μM amiloride from that measured before the application of amiloride."}},
  "data": [
    {"molecule": "SPLUNC1: human SPLUNC1, 256 amino acid secreted PLUNC protein (SEQ ID NO:1); rSPLUNC1 = V5/6His-tagged protein purified from HEK293 media (protein, listed as Homo sapiens, V5/6His tag, rSPLUNC1 = V5/6His-tagged protein purified from HEK293 media) MFQTGGLIVFYGLLAQTMAQFGGLPVPLDQTLPLNVNPALPLSPTGLAGSLTNALSNGLLSGGLLGILENLPLLDILKPGGGTSGGLLGGLLGKVTSVIPGLNNIIDIKVTDPQLLELGLVQSPDGHRLYVTIPLGIKLQVNTPLVGASLLRLAVKLDITAEILAVRDKQERIHLVLGDCTHSPGSLQISLLDGLGPLPIQGLLDSLTGILNKVLPELVQGNVCPLVNEVLRGLDITLVHDIVNMLIHGLQFVIKV", "values": [
      {"measurement": "regulation of airway surface liquid height", "setting": "[1]", "value": "restored"},
      {"measurement": "inhibition of furin-insensitive ENaC mutant", "setting": "[2]", "value": "inhibited"}
    ]}
  ]
}
